This is an account of results in patent publication CN115466329A (GUANGDONG FAPON PHARMACEUTICAL CO LTD, dated 2022).

The target in test [1] is T1, 小鼠PD1 expressed on CHO cells (CHO-mousePD1) (mouse, UniProt Q02242 25-288).
T1 construct: whole, on cells; also called CHO-mPD1
T1 sequence (looked up): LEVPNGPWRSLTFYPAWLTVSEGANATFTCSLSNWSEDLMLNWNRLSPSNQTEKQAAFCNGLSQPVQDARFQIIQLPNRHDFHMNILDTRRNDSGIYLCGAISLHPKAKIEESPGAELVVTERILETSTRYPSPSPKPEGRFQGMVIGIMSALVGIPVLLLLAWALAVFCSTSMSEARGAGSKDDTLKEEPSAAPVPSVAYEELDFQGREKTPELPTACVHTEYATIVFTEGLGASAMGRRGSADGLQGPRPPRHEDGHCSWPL
The test is described as follows: flow cytometry on CHO-mousePD1 cells. In general terms: Flow cytometry measures light scatter and fluorescence of single cells or particles in a stream.

Test [2] concerns the target T2, ICOS (ACRO) coated on the ELISA plate (UniProt Q9Y6W8 21-140).
T2 sequence (looked up): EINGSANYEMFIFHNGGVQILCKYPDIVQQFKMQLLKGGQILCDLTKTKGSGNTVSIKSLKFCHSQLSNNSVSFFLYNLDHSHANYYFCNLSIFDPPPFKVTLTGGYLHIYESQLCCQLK
The test is described as follows: ELISA, antigen coated at 1μg/ml. On the technique in general: ELISA stands for enzyme-linked immunosorbent assay.

The target in test [3] is T3, CTLA-4 (ACRO) coated on the ELISA plate (UniProt P16410 37-162, limits assumed).
T3 sequence (looked up): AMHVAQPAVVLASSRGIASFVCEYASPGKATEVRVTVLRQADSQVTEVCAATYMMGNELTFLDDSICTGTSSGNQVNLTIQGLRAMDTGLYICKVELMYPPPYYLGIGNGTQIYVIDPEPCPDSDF
The test is described as follows: ELISA, antigen coated at 1μg/ml.

For test [4], the target named is CD28 (ACRO) coated on the ELISA plate (UniProt P10747 19-152). Description: ELISA, antigen coated at 1μg/ml.
Sequence of CD28 (ACRO) coated on the ELISA plate (P10747 19-152 limits assumed): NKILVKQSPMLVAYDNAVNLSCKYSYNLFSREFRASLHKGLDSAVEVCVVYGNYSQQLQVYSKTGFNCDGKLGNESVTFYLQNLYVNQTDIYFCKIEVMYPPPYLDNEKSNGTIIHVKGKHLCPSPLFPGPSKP
The target of test [5] is T4, PD-1-his(ACRO)重组蛋白 (UniProt Q15116 25-167).
T4 construct: Bought (ACRO); not shown: his tag
T4 sequence (Q15116 25-167 limits assumed): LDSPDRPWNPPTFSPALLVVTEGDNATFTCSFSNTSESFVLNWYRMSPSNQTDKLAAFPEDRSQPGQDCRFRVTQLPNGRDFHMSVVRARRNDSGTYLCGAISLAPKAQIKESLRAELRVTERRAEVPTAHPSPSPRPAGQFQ
The test is described as follows: BLI (ForteBio Octet QKe), PD-1-his loaded on HIS1K sensor, antibody in solution.

B1: 抗PD-1鼠单抗PD-1-76-C2 (antibody, V domains shown)
VH: QIQLVQSGPELKKPGETVKISCKASGYTFTNYGMNWVKQAPGKGLKWMGWINTHTGEPTYADDFKGRFAFSLETSASTAYLQIKNLKNEDVATYFCTKEGEGIGFAYWGQGTLVTVSA
VL: DVLMTQTPLSLPVSLGDQASISCRSSQSIVYSNGKTYLEWYLQKPGQSPKLLIYKVSNRFSGVPDRFSGSGSGTDFTLKISRVEAEDLGVYYCFQGSHVPNTFGGGTKLEIKR
notes: Mouse monoclonal antibody from a hybridoma; an mIgG1 isotype control was used; also called PD-76-C2; 抗人PD-1鼠单抗
For the molecule B1, the binding result in test [1] is listed as “no binding (tested: 初始浓度为10μg/ml)”; in test [2], “no binding (tested: 10μg/ml)”; in test [3], “no binding (tested: 10μg/ml)”; in test [4], “no binding (tested: 10μg/ml)”. Moreover, in test [5], the equilibrium dissociation constant (Kd) (in general, the concentration at which binding is half-saturated) is less than 1 pM. Moreover, in test [5], the off-rate constant (koff) (in general, the first-order rate constant of dissociation) is less than 1e-07 s⁻¹. Besides, in test [5], the on-rate (kon) (commonly a measure of how fast the partners come together) stood at 771000 M⁻¹ s⁻¹.
